The record followed here is patent US20210269525A1 (BIOCYTOGEN PHARMACEUTICALS BEIJING, published 2021).

In assay [1] the target is T1, human CD3e (T-cell surface glycoprotein CD3 epsilon chain) (human, UniProt P07766 23-207). Kind of assay: cell-based or functional assay.
Assay [2] has as its target T1, human CD3e (T-cell surface glycoprotein …). Description: cell-based or functional assay. The source holds these as a separate data set.
Assay [3] has the same target. Kind of assay: cell-based or functional assay. The source holds these as a separate data set.
For assay [4], the target named is T2, Cynomolgus CD3 epsilon Protein, His Tag (Acrobiosystems, Cat #CDE-05226) (cynomolgus (Macaca fascicularis), UniProt Q95LI5 22-117).
T2 construct: also called monkey CD3e; not shown: His tag
T2 sequence: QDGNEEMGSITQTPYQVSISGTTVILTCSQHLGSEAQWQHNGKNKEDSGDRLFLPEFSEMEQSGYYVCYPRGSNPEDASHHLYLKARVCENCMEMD
Description: SPR (Biacore), cynomolgus CD3e His tag. The procedure:
The binding affinity of the anti-hCD3e antibodies with monkey CD3e (Cynomolgus CD3 epsilon Protein (SEQ ID NO: 39 AA Gln 22-Asp 117), His Tag, Acrobiosystems, Cat #CDE-05226) were also measured using surface plasmon resonance (SPR) using Biacore (Biacore, INC, Piscataway N.J.) by the methods as described in the examples.

Assay [5] has as its target T3, Histidine-tagged human CD3e protein (human, UniProt P07766 23-126).
T3 construct: also called hCD3e-His; not shown: His tag
Description: SPR (Biacore), human CD3e; same numbers as Table 7. On the technique in general: SPR reads the build-up and loss of mass on a sensor chip optically.

Assay [6] deals with T3, Histidine-tagged human CD3e protein. Description: SPR, Biacore T200, antibody on Protein A chip, hCD3e-His injected. The procedure: (§1) The binding affinity of the anti-hCD3e antibodies were measured using surface plasmon resonance (SPR) using Biacore (Biacore, INC, Piscataway N.J.) T200 biosensor equipped with pre-immobilized Protein A sensor chips (Protein A (Lot:10260138)-5).
Anti-hCD3e antibodies were collected from CHO-S cells. The antibodies (1:20) were injected into Biacore T200 biosensor at 10 μL/min for 35 seconds to achieve to a desired protein density. Histidine-tagged human CD3e proteins (hCD3e-His) with different concentrations (100 nM 0.390625 nM) were then injected to the system at 30 μL/min for 150 seconds. Dissociation was monitored for 600 seconds. The chip was regenerated after the last injection of each titration with Glycine (pH 2.0, 30 μL/min for 5 seconds).

Assay [7] addresses T4, Histidine-tagged rCD3e protein (rhesus macaque, Macaca mulatta) (rhesus macaque (Macaca mulatta), UniProt Q95LI5 22-117 (cynomolgus entry), limits assumed).
T4 construct: also called rCD3e-His; rmCD3e; not shown: His tag
T4 chain: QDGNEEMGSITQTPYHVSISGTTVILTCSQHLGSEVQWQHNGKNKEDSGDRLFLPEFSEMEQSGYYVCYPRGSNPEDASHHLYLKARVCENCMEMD
Kind of assay: SPR, Biacore T200, antibody on Protein A chip, rCD3e-His injected. Here is the method:
as §1
Experiments were also performed to test the binding affinities with rCD3e (rhesus macaque, or Macaca mulatta). Anti-hCD3e antibodies (1:20) were injected into Biacore T200 biosensor at 10 μL/min for 30 seconds to achieve to a desired protein density. Histidine-tagged rCD3e proteins (rCD3e-His) with different concentrations (100 nM 0.390625 nM) were then injected to the system at 30 μL/min for 150 seconds. Dissociation was monitored for 450 seconds. The chip was regenerated after the last injection of each titration with Glycine (pH 2.0, 30 μL/min for 12 seconds).

Assay [8] addresses T3, Histidine-tagged human CD3e protein. Kind of assay: SPR (Biacore), human CD3e.
Assay [9] has as its target T1, human CD3e (T-cell surface glycoprotein …). Description: flow cytometry, human PBMC, antibody 1 µg/mL, anti-human IgG Fc-Alexa Fluor647 (1:500), anti-hTcRβ-PerCP (1:30). For orientation: Flow cytometry measures light scatter and fluorescence of single cells or particles in a stream.
Assay [10] has the same target. Description: flow cytometry, human PBMC, antibody 10 µg/mL, anti-human IgG Fc-Alexa Fluor647 (1:500), anti-hTcRβ-PerCP (1:30).
The target is the same in assay [11]. Description: flow cytometry, human PBMC, antibody 0.1 µg/mL, anti-human IgG Fc-Alexa Fluor647 (1:500), anti-hTcRβ-PerCP (1:30).
Assay [12] deals with T5, monkey CD3e (Macaca fascicularis) on PBMC (Macaca fascicularis, UniProt Q95LI5 22-198).
T5 construct: Target on PBMC from Macaca fascicularis; also called mfCD3e; monkey PBMC
Kind of assay: flow cytometry, Macaca fascicularis PBMC, antibody concentration not given, anti-human IgG Fc-Alexa Fluor647 (1:500), anti-hTcRβ-PerCP (1:30). The method in brief:
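Cynomolgus PBMC incubated with anti-hCD3 antibodies 15 min at 4° C, washed in PBS. Bound antibody detected with anti-human IgG Fc-Alexa Fluor647 (1:500) plus anti-hTcRβ-PerCP (1:30), 15 min at 4° C, then washed and analysed by flow cytometry.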

In assay [13] the target is T3, Histidine-tagged human CD3e protein. Kind of assay: SPR (Biacore), human CD3e; same numbers as Table 7. The source holds these as a separate data set.

Like-named read-outs stand apart in the source and are kept apart here. Where only a bound is given, the exact number is not on record here.

T5 sequence (Q95LI5 22-198 limits assumed): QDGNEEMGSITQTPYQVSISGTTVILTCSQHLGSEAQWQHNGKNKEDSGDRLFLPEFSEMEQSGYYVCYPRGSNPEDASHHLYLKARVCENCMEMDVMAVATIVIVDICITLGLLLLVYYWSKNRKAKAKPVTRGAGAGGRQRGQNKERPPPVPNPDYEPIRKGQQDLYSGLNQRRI

B1: Teplizumab (antibody, V domains shown)
VH: QVQLVQSGGGVVQPGRSLRLSCKASGYTFTRYTMHWVRQAPGKGLEWIGYINPSRGYTNYNQKVKDRFTISRDNSKNTAFLQMDSLRPEDTGVYFCARYYDDHYCLDYWGQGTPVTVSS
VL: DIQMTQSPSSLSASVGDRVTITCSASSSVSYMNWYQQTPGKAPKRWIYDTSKLASGVPSRFSGSGSGTDYTFTISSLQPEDIATYYCQQWSSNPFTFGQGTKLQITR
Regarding B1, the “EC50, luciferase of Jurkat-Luc-NFAT cells; purified antibody” value in assay [1] amounted to 0.149 µg/mL; in assay [2] it was 0.449 µg/mL.

B2: 30-1B1 (antibody, V domains shown)
VH: QVQLQQPGSELVRPGASVKLSCKASGYTFTSYWMHWVKQRHGQGLEWIGNIYPDSGTTNYGEKFKTKGTLTVDTSSSTAYMHLSSLTSEDSAVYYCTRDTSGQYYFDYWGQGTTLTVSS
VL: DIVMSQSPSSLAVSAGEKVTMSCKSSQSLLNSRTRKNYLAWYQHKPGQSPKLLIYWASTRESGVPDRFTGSGSGTDFTLTISSVQAEDLAVYYCVQSFSLRAFGGGTKLEIK
With B2, the “EC50, luciferase of Jurkat-Luc-NFAT cells with CHO-FcγRIIB cells” value in [3] was found to be 2.98 µg/mL.

B3: C3E-30-1B1-mHvKv-IgG1-LALA (antibody, V domains shown)
VH: QVQLQQPGSELVRPGASVKLSCKASGYTFTSYWMHWVKQRHGQGLEWIGNIYPDSGTTNYGEKFKTKGTLTVDTSSSTAYMHLSSLTSEDSAVYYCTRDTSGQYYFDYWGQGTTLTVSS
VL: DIVMSQSPSSLAVSAGEKVTMSCKSSQSLLNSRTRKNYLAWYQHKPGQSPKLLIYWASTRESGVPDRFTGSGSGTDFTLTISSVQAEDLAVYYCVQSFSLRAFGGGTKLEIK
notes: Chimeric
On to B3, for which the dissociation constant (Kd) in assay [4] turned out to be 4.54 nM; in assay [5], 0.988 nM; in assay [6] it was 0.988 nM; in assay [7], 0.752 nM. Moreover, the koff in assay [4] is 0.00049 s⁻¹; in [5] it was 0.000509 s⁻¹; in [6], 0.000509 s⁻¹; in assay [7], 0.00039 s⁻¹. Further, the kon in assay [4] stood at 108000 M⁻¹ s⁻¹; in assay [5], 516000 M⁻¹ s⁻¹; in assay [6], 516000 M⁻¹ s⁻¹; in assay [7] it was 518000 M⁻¹ s⁻¹.

B4: 1B1-H1K2-IgG1-LALA (antibody, V domains shown)
VH: QVQLVQSGAEVKKPGASVKVSCKASGYTFTSYWMHWVRQAPGQGLEWIGNIYPDSGTTNYGEKFKTRVTLTVDTSTSTAYMELSSLRSEDTAVYYCTRDTSGQYYFDYWGQGTLVTVSS
VL: DIVMTQSPDSLAVSAGERVTMNCKSSQSLLNSRTRKNYLAWYQHKPGQSPKLLIYWASTRESGVPDRFSGSGSGTDFTLTISSLQAEDVAVYYCVQSFSLRAFGGGTKVEIK
notes: Humanized; human IgG1 with LALA mutations; also called H1K2 (humanized 1B1)
For the molecule B4, the “EC50, luciferase of Jurkat-Luc-NFAT cells; antibody from supernatant” value in assay [2] was greater than 3.08 µg/mL. Further, the Kd is 1.2 nM in assay [8] and 7.59 nM in [4]. The koff was found to be 0.000669 s⁻¹ in [8] and 0.00072 s⁻¹ in [4]. For the same molecule, the kon in [8] was 558000 M⁻¹ s⁻¹; in assay [4] it was 94900 M⁻¹ s⁻¹. In addition, the “upper left quadrant, percent of cells AF647+ / hTcRβ-PerCP-” value in [9] was 9.83%; in [10], 9.94%; in assay [11], 11.6%; in assay [12], 80.5%. In addition, the “upper right quadrant, percent of cells AF647+ / hTcRβ-PerCP+” value in [9] is 62.4%; in [10], 63.5%; in assay [11], 58.1%; in assay [12], 14.9%.

B5: 1B1-H2K3-IgG1-LALA (antibody, V domains shown)
VH: QVQLVQSGAEVKKPGASVKLSCKASGYTFTSYWMHWVRQAPGQGLEWIGNIYPDSGTTNYGEKFKTRVTLTVDTSTSTAYMELSSLRSEDTAVYYCTRDTSGQYYFDYWGQGTLVTVSS
VL: DIVMTQSPDSLAVSAGERVTMNCKSSQSLLNSRTRKNYLAWYQHKPGQSPKLLIYWASTRESGVPDRFSGSGSGTDFTLTISSVQAEDVAVYYCVQSFSLRAFGGGTKLEIK
notes: Humanized; human IgG1 with LALA mutations; also called H2K3 (humanized 1B1)
B5: the “EC50, luciferase of Jurkat-Luc-NFAT cells; antibody from supernatant” value in assay [2] was greater than 16.7 µg/mL. Further, the values for the Kd in assay [8] and in [4] were 1.01 nM and 5.39 nM, respectively. Besides, the koff in [8] was 0.000651 s⁻¹; in [4] it was 0.000591 s⁻¹. For the same molecule, the values for the kon in assay [8] and in [4] were 644000 M⁻¹ s⁻¹ and 110000 M⁻¹ s⁻¹, respectively. Also, the “upper left quadrant, percent of cells AF647+ / hTcRβ-PerCP-” value in assay [9] is 10.4%; in assay [10], 10.9%; in [11] it was 10.8%; in assay [12] it was 88.3%. Also, the “upper right quadrant, percent of cells AF647+ / hTcRβ-PerCP+” value amounted to 60.6% in [9], 61.2% in assay [10], 59.1% in assay [11] and 8.61% in assay [12].

B6: 25-10A4 (antibody, V domains shown)
VH: QVQLQQSGPELVKPGASVRISCKASGYTFTSYYIHWVKQRPGQGLEFIGWIYPGNVNAKYNEKFKGKATLTTDKSSTTAYMQLSSLTSEDSAVYFCAIKGGNYDWGQGTLVTVSA
VL: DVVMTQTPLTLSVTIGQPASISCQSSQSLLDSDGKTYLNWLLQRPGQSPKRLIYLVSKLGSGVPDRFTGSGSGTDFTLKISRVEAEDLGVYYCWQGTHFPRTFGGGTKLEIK
Take B6: in [3], the “EC50, luciferase of Jurkat-Luc-NFAT cells with CHO-FcγRIIB cells” value was 0.421 µg/mL.

B7: C3E-25-10A4-mHvKv-IgG1-LALA (antibody, V domains shown)
VH: QVQLQQSGPELVKPGASVRISCKASGYTFTSYYIHWVKQRPGQGLEFIGWIYPGNVNAKYNEKFKGKATLTTDKSSTTAYMQLSSLTSEDSAVYFCAIKGGNYDWGQGTLVTVSA
VL: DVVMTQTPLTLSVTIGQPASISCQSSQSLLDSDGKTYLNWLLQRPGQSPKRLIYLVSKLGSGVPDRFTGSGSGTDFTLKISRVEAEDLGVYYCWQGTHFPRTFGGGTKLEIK
notes: Chimeric
Consider B7, for which the Kd came out at 9.05 nM in [4], 5.37 nM in [13], 5.37 nM in assay [6] and 2.05 nM in assay [7]. Also, the koff was 0.000453 s⁻¹ in assay [4], 0.000384 s⁻¹ in assay [13], 0.000384 s⁻¹ in assay [6] and 0.000251 s⁻¹ in [7]. Moreover, the kon stood at 50000 M⁻¹ s⁻¹ in assay [4], 71500 M⁻¹ s⁻¹ in [13], 71500 M⁻¹ s⁻¹ in assay [6] and 123000 M⁻¹ s⁻¹ in assay [7].

Usually Kd stands for a measure of binding affinity in units of concentration. In general, koff refers to the rate constant with which the complex falls apart. What is called kon is the rate constant with which the complex forms.
